According to US7807387B2, “Biological agent that causes IL-6 receptor release” (Meyer Pharmaceuticals LLC, priority 2003, dated 2010):

Key:
[1] = test system: collagen-induced arthritis; assay: Collagen-induced arthritis, treatment from 3 days before collagen; format: in vivo, DBA/1 LacJ mice
Experimental: (§1) Collagen-induced arthritis is a standard model for evaluating potential therapeutic agents for rheumatoid arthritis (Courtenay et al., Nature 283:666, 1980; Williams et al., Proc Natl Acad Sci USA 89:9784, 1992; Gerlag et al., J Immunol 165:1652, 2000). Arthritis was induced in 7-9 week old female DBA/1 LacJ mice by immunization with collagen. On day 0, the mice were injected at the base of the tail with 100 μg bovine type II collagen in complete Freund's adjuvant. On day 7, mice were boosted with an intraperitoneal injection of 100 μg collagen. To enhance and synchronize synovitis, the mice were injected subcutaneously on day 14 with 100 μg of lipopolysaccharide (LPS). Joint swelling was monitored in a blinded fashion by measuring the diameter in all 4 paws and both ankles using a constant pressure gauge. Arthritis Index was also determined on the following scale, and summed for all extremities. 0≡normal; 1≡one digit swollen; 2≡more than one digit swollen; 3≡joint distortion; 4≡ankylosis. The arthritis experiments were conducted under contract by Calvert Preclinical Services, Inc., Olyphant Pa.
As is typical in this model, not all animals respond to the collagen challenge.

LPS-induced septic shock = assay: LPS/galactosamine-induced septic shock model; format: in vivo, Balb/c mice
Experimental: A classic model for determining effectiveness of agents against cytokine-mediated inflammation is endotoxin-induced septic shock (Morrison et al., J Infect Dis 162:1063, 1990).
The septic shock experiment was conducted as follows. Female Balb/c mice were randomized by weight into 6 treatment groups. Sepsis was induced by injecting 10 μg LPS and 7 mg galactosamine in the lateral or dorsal caudal vein. Some of the groups were pretreated with 50,000 FU of MP8 simultaneously or 3 hours in advance of the LPS challenge to determine whether there was a protective effect.
FIG. 8 is a Kaplan-Meier survival curve, showing the mortality in each of the treatment groups in the study. Without any treatment or challenge, there is no effect on the animals, and the line stays at the top. Life-compromising challenge causes the line to fall to the bottom of the graph in a step-wise fashion as each animal succumbs. Treatment that is protective against the challenge maintains the line near the top of the graph.
The enzyme was administered in a volume of 110 μL at one hour before the LPS challenge.
Stability of the clinical effect of MP8 was determined in the septic shock model. Female Balb/c mice were injected with 300,000 FU of MP8 that had been stored for 4 days at −70° C., or 7 days at 4° C. One hour later, the mice were challenged with 10 μg LPS and 7 mg galactosamine as before.
In this example, durability of receptor cleavage in vivo was determined by treating animals subcutaneously up to three days in advance with 300,000 FU of MP8. The mice were then challenged with […] LPS and 7 mg galactosamine in the usual fashion.
Sepsis was induced in Balb/c mice by administering 10 μg LPS and […] galactosamine, as in Example 3. Randomized groups were pretreated with up to 40 μg MP8-FL2 one hours in advance of the LPS challenge.

p55 TNF Receptor = target: T1, p55 TNF Receptor (Homo sapiens, UniProt P19438); assay: Cleavage of cell surface p55 TNF receptor on THP-1 cells; format: cell-based; settings: 45 minutes at 37° C.
T1 construct: endogenous in cells; host or cells: THP-1
T1 sequence (P19438 30-455): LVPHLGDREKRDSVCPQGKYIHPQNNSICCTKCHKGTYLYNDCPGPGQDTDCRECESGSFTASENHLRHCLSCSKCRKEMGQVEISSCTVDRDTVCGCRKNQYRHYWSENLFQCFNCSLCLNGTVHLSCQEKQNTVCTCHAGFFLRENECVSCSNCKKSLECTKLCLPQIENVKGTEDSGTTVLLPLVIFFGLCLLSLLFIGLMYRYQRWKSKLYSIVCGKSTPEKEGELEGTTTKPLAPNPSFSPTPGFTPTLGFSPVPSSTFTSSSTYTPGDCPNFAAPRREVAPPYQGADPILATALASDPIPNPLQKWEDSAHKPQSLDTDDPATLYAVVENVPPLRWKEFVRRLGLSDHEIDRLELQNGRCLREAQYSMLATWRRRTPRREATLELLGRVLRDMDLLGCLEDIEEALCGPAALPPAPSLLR
Experimental: This cell line expresses both the p55 TNF receptor and the p75 TNF receptor. After incubating for 45 minutes at 37° C., the cells were washed, immunostained for cell surface receptor, and counted by flow cytometry.

[2] = test system: collagen-induced arthritis; assay: Collagen-induced arthritis, treatment of established disease; format: in vivo
Experimental: as §1
Mice were immunized with collagen on days 0, and 7, and then boosted with LPS on day 14. Treatment with MP8 was initiated on day 22 when arthritis was well established. At that time, animals with arthritis were randomized into three groups, and unaffected animals were excluded. The three affected groups were then treated for 18 consecutive days with saline control, or with MP8 at either of two different doses.

[3] = test system: experimentally induced Asthma; assay: Experimentally induced asthma (ovalbumin sensitization and aerosol challenge); format: in vivo, mice; settings: treatment 1 h before aerosol challenge, 24 h and 48 h afterwards; lavage at 72 h
Experimental: Mice were sensitized on Days 0, 7, and 14 with 10 μg ovalbumin in 1% aluminum hydroxide. On Day 21, the mice were challenged with the allergen in aerosol form (5% wt/vol in saline). Treatment with MP8 or control was administered 1 h before the aerosol challenge, and 24 h and 48 h afterwards. On Day 24 (72 h after the challenge), lungs were ravaged under anesthesia with 2×0.5 mL buffer to recover cells in the alveolar fluid.

B1: MP8: polypeptide having the sequence of SEQ. ID NO:41 (usually with a HIS tag); cytokine receptor releasing protein expressed in E. coli (protein, listed as Homo sapiens)
chain: WIQRIRHEGNSTVYEWRTGTEPSVVERPHLEELPEQVAEDAIDWGDFGVEAVSEGTDSGISAEAAGIDWGIFPESDSKDPGGDGIDWGDDAVALQITVLEAGTQAPEGVARGPDALTLLEYTETRNQFLDELMELEIFLAQRAVELSEEADVLSVSQFQLAPAILQGQTKEKMVTMVSVLEDLIGKLTSLQLQHLFMILASPRYVDRVTEFLQQKLKQSQLLALKKELMVQKQQEALEEQAALEPKLDLLLEKTKELQKLIEADISKRYSGRPVNLMGTSL
modifications: HIS tag
notes: ID NO:41 (usually with a HIS tag); cytokine receptor releasing protein expressed in E. coli
effectiveness compared with Enbrel ([1]; 300,000 FU daily): at least as effective as a scaled dose of Enbrel®
animals affected by arthritis ([1]; 300,000 FU daily starting 3 days before first collagen injection, 8 out of 9 controls affected): none of the animals treated with MP8 were affected
joint swelling and arthritis index ([1]; 300,000 FU daily, prophylactic): prevented the animals from showing any measurable signs of the disease
protection against LPS-induced septic shock (LPS-induced septic shock; 50,000 FU, simultaneously with LPS challenge or 3 hours in advance): fully protective
clinical efficacy in septic shock model after storage (LPS-induced septic shock; 300,000 FU stored 4 days at −70° C. or 7 days at 4° C., one hour before challenge): can be frozen without causing a loss in clinical efficacy
protection against septic shock when administered days in advance (LPS-induced septic shock; 300,000 FU subcutaneously up to three days in advance): able to protect most mice up to 3 days after administration
protection against LPS-induced septic shock (LPS-induced septic shock; 300,000 FU, one hour before LPS challenge): completely protective
protection against LPS-induced septic shock (LPS-induced septic shock; single dose of 30,000 FU, one hour before LPS challenge): able to protect a proportion of the challenged subjects
cleavage of p55 TNF receptor on the surface of cells (p55 TNF Receptor): cleaves
toxicity ([2]; MP8 treated groups): No toxicity was detected
swelling in the affected joints ([2]; daily for 18 days from day 22, two doses, p<0.001 vs control): highly significant reduction in swelling
severity of inflammatory synovitis by histopathology ([2]; higher dose, end of experiment): lower severity of inflammatory synovitis
level of antibodies to type II collagen in serum ([2]; low or high dose, ELISA, p<0.02): almost half the control
proportion of eosinophils [3]: substantially reduced
white blood cells migrating into the alveolar fluid [3]: reduced the number of the white blood cells migrating into the alveolar fluid
